Data: paper PMC8050843

Target: Ndc80C-GFP (S. cerevisiae Ndc80 complex with GFP at the C terminus of Spc24) (S. cerevisiae) (UniProt P40460)
Chain of UniProt P40460 (P40460 whole entry, chain 1 of 4): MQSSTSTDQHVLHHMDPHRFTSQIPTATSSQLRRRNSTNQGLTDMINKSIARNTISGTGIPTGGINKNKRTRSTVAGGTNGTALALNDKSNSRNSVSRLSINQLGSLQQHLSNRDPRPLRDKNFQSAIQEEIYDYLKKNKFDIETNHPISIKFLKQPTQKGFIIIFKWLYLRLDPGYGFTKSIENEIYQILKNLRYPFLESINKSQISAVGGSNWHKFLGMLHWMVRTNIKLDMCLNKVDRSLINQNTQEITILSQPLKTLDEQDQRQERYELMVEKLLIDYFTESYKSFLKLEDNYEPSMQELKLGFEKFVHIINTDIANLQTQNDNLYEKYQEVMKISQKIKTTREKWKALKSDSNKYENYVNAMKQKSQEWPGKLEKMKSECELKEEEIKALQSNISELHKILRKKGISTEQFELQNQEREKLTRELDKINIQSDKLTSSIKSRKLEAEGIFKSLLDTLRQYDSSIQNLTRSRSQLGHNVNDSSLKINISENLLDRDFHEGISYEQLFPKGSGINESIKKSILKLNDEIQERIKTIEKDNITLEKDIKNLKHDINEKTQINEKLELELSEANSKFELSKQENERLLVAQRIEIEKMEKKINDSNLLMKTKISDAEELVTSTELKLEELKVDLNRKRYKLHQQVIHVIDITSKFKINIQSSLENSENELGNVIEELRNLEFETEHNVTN
Chain of UniProt P40460 (P33895 whole entry, chain 2 of 4, further chain): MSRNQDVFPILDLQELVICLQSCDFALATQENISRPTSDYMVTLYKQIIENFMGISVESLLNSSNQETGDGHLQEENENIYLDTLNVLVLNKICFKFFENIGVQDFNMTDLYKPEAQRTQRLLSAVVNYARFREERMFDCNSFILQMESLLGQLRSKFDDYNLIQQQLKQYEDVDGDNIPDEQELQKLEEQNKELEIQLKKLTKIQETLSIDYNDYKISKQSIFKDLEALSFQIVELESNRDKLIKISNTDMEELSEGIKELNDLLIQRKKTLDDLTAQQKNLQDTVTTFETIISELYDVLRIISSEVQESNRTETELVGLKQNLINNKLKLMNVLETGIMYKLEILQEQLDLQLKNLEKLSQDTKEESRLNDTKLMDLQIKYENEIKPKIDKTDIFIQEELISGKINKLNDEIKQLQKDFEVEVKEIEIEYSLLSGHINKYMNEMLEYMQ
Chain of UniProt P40460 (Q04477 whole entry, chain 3 of 4, further chain): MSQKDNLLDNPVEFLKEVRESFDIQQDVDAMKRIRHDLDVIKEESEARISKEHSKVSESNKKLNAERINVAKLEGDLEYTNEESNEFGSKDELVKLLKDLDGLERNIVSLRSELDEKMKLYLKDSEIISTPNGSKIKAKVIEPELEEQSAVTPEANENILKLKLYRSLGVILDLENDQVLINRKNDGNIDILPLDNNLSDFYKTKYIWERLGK
Chain of UniProt P40460 (P40014 whole entry, chain 4 of 4, further chain): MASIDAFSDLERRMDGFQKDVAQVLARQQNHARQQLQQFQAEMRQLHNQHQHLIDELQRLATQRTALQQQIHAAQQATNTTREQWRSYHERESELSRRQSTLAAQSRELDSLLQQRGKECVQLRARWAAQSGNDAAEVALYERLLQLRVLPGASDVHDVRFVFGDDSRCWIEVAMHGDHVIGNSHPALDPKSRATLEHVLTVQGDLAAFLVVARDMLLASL

detachment of the Ndc80C nanobead from the MT plus end following transient end-on attachment (end-on drop-off) in the absence of Dam1C, against its presence: 31%
Substance: Dam1C (S. cerevisiae Dam1 complex, without GFP) (from UniProt P53267 1-343; Q12248 1-94; P36131 1-295)
